Source: publication PMC2605612 (Experimental cell research, 2008)
Numbering of substitutions follows the chain as printed. Numbers in names are those of the source. Read-outs that look alike come from different tables or passages of the source.

B1: Myc-hFis1[32-152]Δα5 (domain or fragment, human, UniProt Q9Y3D6 32-152, looked up)
chain: KSTQFEYAWCLVRSKYNDDIRKGIVLLEELLPKGSKEEQRDYVFYLAVGNYRLKENQAKELERLIDKAMKKDGLVGMAIVGGMALGVAGLAGLIGLAVSKSKS
B2: Myc-hFis1[32-152] (domain or fragment, human, UniProt Q9Y3D6 32-152, looked up)
chain: KSTQFEYAWCLVRSKYNDDIRKGIVLLEELLPKGSKEEQRDYVFYLAVGNYRLKEYEKALKYVRGLLQTEPQNNQAKELERLIDKAMKKDGLVGMAIVGGMALGVAGLAGLIGLAVSKSKS
B3: Myc-hFis1[32-152]-Y87A (domain or fragment, human, UniProt Q9Y3D6 32-152, looked up)
chain: B2 chain with Y56A
B4: Fis/OMP (other, UniProt Q9Y3D6 1-120, looked up)
chain: MEAVLNELVSVEDLLKFEKKFQSEKAAGSVSKSTQFEYAWCLVRSKYNDDIRKGIVLLEELLPKGSKEEQRDYVFYLAVGNYRLKEYEKALKYVRGLLQTEPQNNQAKELERLIDKAMKKPIFMVLVPVFALTMVAAWAFMRYRQQL
B5: Myc-hFis1[92-152] (domain or fragment, human, UniProt Q9Y3D6 92-152, looked up)
chain: KYVRGLLQTEPQNNQAKELERLIDKAMKKDGLVGMAIVGGMALGVAGLAGLIGLAVSKSKS
B6: Myc-hFis1[32-152]GGIDGG (domain or fragment, human, UniProt Q9Y3D6 32-152, looked up)
chain: KSTQFEYAWCLVRSKYNDDIRKGIVLLEELLPGGIDGGRDYVFYLAVGNYRLKEYEKALKYVRGLLQTEPQNNQAKELERLIDKAMKKDGLVGMAIVGGMALGVAGLAGLIGLAVSKSKS

Columns and labels:
[1] = target: the molecule itself; assay: cross-linking
[2] = target: the molecule itself; assay: cross-linking; remark: listed apart in the source

Protein | fold decrease in dimer formation against Myc-hFis1[32-152] [1] | stoichiometry N [2] | stoichiometry N [1]
B1 | ~8 fold | – | –
B2 | – | 4 | 5
B3 | – | – | 2
B4 | – | – | 2
B5 | – | – | 2
B6 | ~3 fold | – | –
